This experiment has as its system GST-p12_WT. As to the kind of experiment: SILAC-MS of proteins enriched with GST-p12_WT relative to GST. As to conditions: for SDs from the mean: log2(GST-p12_WT, Heavy/GST, Light). It is filed as binding, Mo-MLV. The source says: To test whether GST-p12 was acting like the p12 region of Gag, we used a global proteomic approach based on stable isotope labelling by amino acids in cell culture (SILAC)-mass spectrometry (MS) to look for host proteins that interact with GST-p12 [35, 36]. A schematic diagram of the workflow is illustrated in Fig 4A. Briefly, GST, GST-p12_mut14 and GST-p12_WT were transiently-expressed in 293T cells cultured in light (R0/K0), medium (R6/K4) and heavy (R10/K8) SILAC media, respectively. Next, lysates of nocodazole treated transfected cells were prepared, normalised and used for parallel pull-down assays with glutathione-sepharose beads. The eluates from the beads were then pooled in a 1:1:1 ratio and subjected to LC-MS/MS analysis. The experiment was performed using biological replicates to test reproducibility of the mass-spec hits. The pull-down assays for this experiment were performed using mitotic cell lysates to facilitate identification of any potential chromatin interactions that were previously missed.
After removal of obvious contaminants (e.g. keratin) and non-quantified hits, 948 and 879 proteins were identified in replicates 1 and 2 (R1 and R2) of the experiment respectively (the false discovery rate (FDR) was set at 5%). To select proteins enriched in the heavy-labelled (H) GST-p12_WT sample relative to the light-labelled (L) GST sample, we compared the log2(H/L) silac ratios of the mass-spectrometry hits. When plotted as a frequency distribution, the log2(H/L) ratios of each replicate fitted well to a normal distribution curve (R^2 ≥ 0.98), allowing the mean and standard deviation to be accurately estimated (Fig 4B). In this experiment, contaminants/non-specifically bound cellular proteins were assumed to cluster around the mean of the distribution. […] Twenty one such proteins were identified in R1 and 22 identified in R2 (Fig 4B Venn diagram). […] These proteins were then ranked based on normalised abundance in the group. In mass-spectrometry analysis, larger proteins are in general assigned higher scores. Therefore, to control for protein size, we divided the number of peptide spectral matches identified for each protein with its length and then normalised the values across the group (Fig 4C and 4D). When ranked this way, the clathrin heavy chain (CLTC), clathrin interactor 1 (CLINT1) and NEDD4-like E3 ubiquitin ligase (WWP2) were identified as the top three hits. […] The function of clathrin in MLV infection is unclear. […] Thus, clathrin binding may be relevant to the early stages of MLV replication and should be investigated further.
For SILAC-MS experiments, 293T cells were grown is media containing light (R0K0, ^12C-Arginine and ^12C-Lysine), medium (R6K4, ^13C-Arginine and Lysine-4,4,5,5-d4) or heavy (R10K8, ^13C+^15N-Arginine and ^13C+^15N-Lysine) versions of L-Arginine and L-Lysine amino acids (Pierce) for a minimum of 6 doublings before transient expression of GST-p12 proteins. After performing the glutathione-sepharose pull-down assays equivalent volumes of the beads eluates were pooled and submitted to the Bristol University Proteomics Facility for RP nano-LC-MS/MS analysis. This analysis was performed on an LTQ-Orbitrap Velos mass spectrometer in line with a Dionex Ultimate 3000 nanoHPLC system as described in [53].
Supplementary file ppat.1007117.s005.xlsx: S1 Table Results from the first SILAC-MS analysis. GST, Mo-MLV GST-p12_mut14 or GST-p12_WT were transiently-expressed in 293T cells cultured in light (R0/K0), medium (R6/K4) and heavy (R10/K8) SILAC media, respectively. Mitotic cell lysates were subsequently used for glutathione-sepharose bead pull-down assays. Bead eluates were pooled in a 1:1:1 ratio and then analysed by LC-MS/MS. […] (XLSX) Click here for additional data file.

B1: Clathrin interactor 1: Q14677 (protein)
chain: MLNMWKVRELVDKATNVVMNYSEIESKVREATNDDPWGPSGQLMGEIAKATFMYEQFPELMNMLWSRMLKDNKKNWRRVYKSLLLLAYLIRNGSERVVTSAREHIYDLRSLENYHFVDEHGKDQGINIRQKVKELVEFAQDDDRLREERKKAKKNKDKYVGVSSDSVGGFRYSERYDPEPKSKWDEEWDKNKSAFPFSDKLGELSDKIGSTIDDTISKFRRKDREDSPERCSDSDEEKKARRGRSPKGEFKDEEETVTTKHIHITQATETTTTRHKRTANPSKTIDLGAAAHYTGDKASPDQNASTHTPQSSVKTSVPSSKSSGDLVDLFDGTSQSTGGSADLFGGFADFGSAAASGSFPSQVTATSGNGDFGDWSAFNQAPSGPVASSGEFFGSASQPAVELVSGSQSALGPPPAASNSSDLFDLMGSSQATMTSSQSMNFSMMSTNTVGLGLPMSRSQNTDMVQKSVSKTLPSTWSDPSVNISLDNLLPGMQPSKPQQPSLNTMIQQQNMQQPMNVMTQSFGAVNLSSPSNMLPVRPQTNALIGGPMPMSMPNVMTGTMGMAPLGNTPMMNQSMMGMNMNIGMSAAGMGLTGTMGMGMPNIAMTSGTVQPKQDAFANFANFSK
Consider B1, for which, where the note is “Replicate 1”, the “Normalised (PSMs/Length)” value came to 26.4693, the PSMs was 18 and the PSMs/Length worked out at 0.0288. Besides, where the note is “Replicate 2”, the “Normalised (PSMs/Length)” value is given as 22.9214, the PSMs amounted to 16, the PSMs/Length came to 0.0256 and the “SDs from the mean” value amounted to 13.1531.

B2: Clathrin light chain A: P09496 (protein)
chain: MAELDPFGAPAGAPGGPALGNGVAGAGEEDPAAAFLAQQESEIAGIENDEAFAILDGGAPGPQPHGEPPGGPDAVDGVMNGEYYQESNGPTDSYAAISQVDRLQSEPESIRKWREEQMERLEALDANSRKQEAEWKEKAIKELEEWYARQDEQLQKTKANNRVADEAFYKQPFADVIGYVTNINHPCYSLEQAAEEAFVNDIDESSPGTEWERVARLCDFNPKSSKQAKDVSRMRSVLISLKQAPLVH
Take B2: where the note is “Replicate 1”, the “Normalised (PSMs/Length)” value was 7.412, the PSMs turned out to be 2 and the PSMs/Length stood at 0.008065. Further, where the note is “Replicate 2”, the “Normalised (PSMs/Length)” value turned out to be 7.2207, the PSMs was determined as 2, the PSMs/Length was determined as 0.008065 and the “SDs from the mean” value is recorded as 7.68.

The record behind these values is article PMC6021111, “Murine leukemia virus p12 tethers the capsid-containing pre-integration complex to chromatin by binding directly to host nucleosomes in mitosis” (PLoS Pathogens, 2018).
